Measurements reported in paper doi:10.1101/209643 (bioRxiv, 2017).
Numbering of substitutions follows the chain as printed. Numbers in names are those of the source.

B1: Cdc11-containing septin complex (Cdc10, Cdc3, Cdc12, Cdc11), wild type (complex)
chain 1: MSAATATAAPVPPPVGISNLPNQRYKIVNEEGGTFTVMLCGESGLGKTTFINTLFQTVLKRADGQQHRQEPIRKTVEIDITRALLEEKHFELRVNVIDTPGFGDNVNNNKAWQPLVDFIDDQHDSYMRQEQQPYRTKKFDLRVHAVLYFIRPTGHGLKPIDIETMKRLSTRANLIPVIAKADTLTAQELQQFKSRIRQVIEAQEIRIFTPPLDADSKEDAKSGSNPDSAAVEHARQLIEAMPFAIVGSEKKFDNGQGTQVVARKYPWGLVEIENDSHCDFRKLRALLLRTYLLDLISTTQEMHYETYRRLRLEGHENTGEGNEDFTLPAIAPARKLSHNPRYKEEENALKKYFTDQVKAEEQRFRQWEQNIVNERIRLNGDLEEIQGKVKKLEEQVKSLQVKKSHLK
chain 2: MDPLSSVQPASYVGFDTITNQIEHRLLKKGFQFNIMVVGQSGLGKSTLINTLFASHLIDSATGDDISALPVTKTTEMKISTHTLVEDRVRLNINVIDTPGFGDFIDNSKAWEPIVKYIKEQHSQYLRKELTAQRERFITDTRVHAILYFLQPNGKELSRLDVEALKRLTEIANVIPVIGKSDTLTLDERTEFRELIQNEFEKYNFKIYPYDSEELTDEELELNRSVRSIIPFAVVGSENEIEINGETFRGRKTRWSAINVEDINQCDFVYLREFLIRTHLQDLIETTSYIHYEGFRARQLIALKENANSRSSAHMSSNAIQR
chain 3: MSLKEEQVSIKQDPEQEERQHDQFNDVQIKQESQDHDGVDSQYTNGTQNDDSERFEAAESDVKVEPGLGMGITSSQSEKGQVLPDQPEIKFIRRQINGYVGFANLPKQWHRRSIKNGFSFNLLCVGPDGIGKTTLMKTLFNNDDIEANLVKDYEEELANDQEEEEGQGEGHENQSQEQRHKVKIKSYESVIEENGVKLNLNVIDTEGFGDFLNNDQKSWDPIIKEIDSRFDQYLDAENKINRHSINDKRIHACLYFIEPTGHYLKPLDLKFMQSVYEKCNLIPVIAKSDILTDEEILSFKKTIMNQLIQSNIELFKPPIYSNDDAENSHLSERLFSSLPYAVIGSNDIVENYSGNQVRGRSYPWGVIEVDNDNHSDFNLLKNLLIKQFMEELKERTSKILYENYRSSKLAKLGIKQDNSVFKEFDPISKQQEEKTLHEAKLAKLEIEMKTVFQQKVSEKEKKLQKSETELFARHKEMKEKLTKQLKALEDKKKQLELSINSASPNVNHSPVPTKKKGFLR
chain 4: MSGIIDASSALRKRKHLKRGITFTVMIVGQSGSGRSTFINTLCGQQVVDTSTTILLPTDTSTEIDLQLREETVELEDDEGVKIQLNIIDTPGFGDSLDNSPSFEIISDYIRHQYDEILLEESRVRRNPRFKDGRVHCCLYLINPTGHGLKEIDVEFIRQLGSLVNIIPVISKSDSLTRDELKLNKKLIMEDIDRWNLPIYNFPFDEDEISDEDYETNMYLRTLLPFAIIGSNEVYEMGGDVGTIRGRKYPWGILDVEDSSISDFVILRNALLISHLHDLKNYTHEILYERYRTEALSGESVAAESIRPNLTKLNGSSSSSTTTRRNTNPFKQSNNINNDVLNPASDMHGQSTGENNETYMTREEQIRLEEERLKAFEERVQQELLLKRQELLQREKELREIEARLEKEAKIKQEE
B2: Cdc11 D65T septin complex (Cdc10, Cdc3, Cdc12, Cdc11 D65T-GFP) (complex)
chain 1: B1 chain 1
chain 2: B1 chain 2
chain 3: B1 chain 3
chain 4: B1 chain 4 with D65T
B3: Cdc12 T75A septin complex (Cdc10, Cdc3, Cdc12 T75A, Cdc11) (complex)
chain 1: B1 chain 1 with T75A
chain 2: B1 chain 2
chain 3: B1 chain 3
chain 4: B1 chain 4
B4: Double mutant septin complex (Cdc10, Cdc3, Cdc12 T75A, Cdc11 D65T-GFP) (complex)
chain 1: B1 chain 1 with T75A
chain 2: B1 chain 2
chain 3: B1 chain 3
chain 4: B1 chain 4 with D65T

Target: the molecule itself
Experiment: TIRF microscopy of filament polymerisation

Row | Protein | binding result
1 | B1 | binds
2 | B2 | binds
3 | B3 | binds
4 | B4 | binds
